Common to all, as to experiment: crystal structure; L1 pentamers (Cys175 to Ser, limited trypsin digestion) at ~5 mg/mL, vapour diffusion at 20 °C
In test [1] the target is H58-33BC chimeric L1 pentamer (Human papillomavirus type 58).
Test [2] deals with H58-33BC-52HI chimeric L1 pentamer (Human papillomavirus type 58).
Test [3] deals with HPV33 L1 pentamer (Human papillomavirus type 33).
The target in test [4] is HPV52 L1 pentamer (Human papillomavirus type 52).

Consider 4 substances from PMC6299097.

A word on the stoichiometry N: it is the number of molecules, sites or subunits per partner or assembly.

With H58-33BC chimeric L1 pentamer (complex), in test [1], the stoichiometry N was 5.

The substance “H58-33BC-52HI chimeric L1 pentamer (complex)” came in with a stoichiometry N in test [2] of 5.

The substance HPV33 L1 pentamer (complex) returned a stoichiometry N in test [3] of 5. In the case of HPV52 L1 pentamer (complex), in test [4], the stoichiometry N amounted to 5.
